Numbering of substitutions follows the chain as printed. Names may count otherwise. Blank lines part the entries; values can stand above or below the binder they belong to.
Experiments:
EphA2-Fc [1] = biological target: T1, EphA2-Fc (UniProt P29317 25-534, limits assumed); assay: SPR (BIAcore 3000), EphA2-Fc immobilized on CM5 chip, soluble IgG, 1:1 Langmuir fit
T1 construct: Amine-coupled to a CM5 chip; not shown: Fc part
Protocol: (§1) The interaction of soluble 12G3, 4C10, 12G3/Mut and 4C10/Mut with immobilized EphA2-Fc was monitored by surface plasmon resonance detection using a BIAcore 3000 instrument (Pharmacia Biosensor, Uppsala, Sweden). EphA2-Fc was coupled to the dextran matrix of a CM5 sensor chip (Pharmacia Biosensor) using an Amine Coupling Kit as described (Johnsson et al. supra) at a surface density of 162 RU. IgGs were diluted in 0.01 M HEPES pH 7.4 containing 0.15 M NaCl, 3 mM EDTA and 0.005% P20. All subsequent dilutions were made in the same buffer. All binding experiments were performed at 25° C. with IgG concentrations typically ranging from 100 nM to 0.2 nM at a flow rate of 75 μL/min; data were collected for approximately 20 min and one 1-min pulse of 1M NaCl, 50 mM NaOH was used to regenerate the surfaces. IgGs were also flowed over an uncoated cell and the sensorgrams from these blank runs subtracted from those obtained with EphA2-Fc-coupled chips. Data were fitted to a 1:1 Langmuir binding model. This algorithm calculates both the kₒₙ and the koff, from which the apparent equilibrium dissociation constant, KD, is deduced as the ratio of the two rate constants (koff/kₒₙ).

EphA2-Fc [2] = biological target: T1, EphA2-Fc; assay: SPR (BIAcore 3000), EphA2-Fc immobilized on CM5 chip, soluble IgG, 1:1 Langmuir fit; below the limit of detection
Protocol: as §1

T1 sequence (P29317 25-534 limits assumed): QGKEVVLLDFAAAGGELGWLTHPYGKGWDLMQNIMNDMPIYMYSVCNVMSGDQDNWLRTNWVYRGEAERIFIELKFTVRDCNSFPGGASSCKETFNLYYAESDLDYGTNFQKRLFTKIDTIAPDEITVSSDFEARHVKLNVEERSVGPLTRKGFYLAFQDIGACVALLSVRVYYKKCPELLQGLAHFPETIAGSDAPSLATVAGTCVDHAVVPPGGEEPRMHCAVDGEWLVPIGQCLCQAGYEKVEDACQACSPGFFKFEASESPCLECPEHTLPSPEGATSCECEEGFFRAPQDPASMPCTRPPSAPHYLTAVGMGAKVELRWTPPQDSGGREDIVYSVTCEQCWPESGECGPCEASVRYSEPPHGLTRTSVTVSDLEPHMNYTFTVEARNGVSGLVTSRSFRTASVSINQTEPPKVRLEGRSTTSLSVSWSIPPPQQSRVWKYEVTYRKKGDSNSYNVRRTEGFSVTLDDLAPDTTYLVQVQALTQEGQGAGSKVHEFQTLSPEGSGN

B1: 12G3/M, heavy chain modified 12G3 (S60A/A61D, Kabat) (antibody, human IgG1, V domains shown)
VH: QMQLVQSGPEVKKPGTSVKVSCKASGFTFDDYSMNWVRQARGQRLEWIGFIRNKANDYTTEYADSVKGRVTITRDMSTSTAYMELSSLRSEDTAVYYCARYPRHHAMDSWGQGTSVTVSS
VL: DIQMTQSPSSLSASVGDRVTITCRASQSISNNLHWYQQKPGKAPKLLIKYAFQSISGVPSRFSGSGSGTDFTFTISSLQPEDFATYYCQQANSWPLTFGGGTKVEIK
notes: The light chain is unaltered; Human IgG1 / kappa; also called 12G3/Mut
- kon (EphA2-Fc [1]): 187000 M⁻¹ s⁻¹
- Kd (EphA2-Fc [2]): < 27 pM
- koff (EphA2-Fc [2]): < 5e-06 s⁻¹

B4: 4C10 humanized anti-EphA2 monoclonal antibody (antibody, human IgG1, V domains shown)
VH: B1 VH with N35T, D57A, A63S, D64A
VL: B1 VL with A91S
notes: Expressed in HEK 293 cells as soluble human IgG1 (human gamma 1 heavy chain, human kappa light chain)
- Kd (EphA2-Fc [1]): 95 pM
- koff (EphA2-Fc [1]): 9.75e-06 s⁻¹
- kon (EphA2-Fc [1]): 102000 M⁻¹ s⁻¹

The next lines start with the values.

- Kd (EphA2-Fc [1]): 34 pM
- koff (EphA2-Fc [1]): 8.49e-06 s⁻¹
- kon (EphA2-Fc [1]): 246000 M⁻¹ s⁻¹
B2: 12G3 humanized anti-EphA2 monoclonal antibody (antibody, human IgG1, V domains shown)
VH: B1 VH with A63S, D64A
VL: B1 VL
notes: Expressed as soluble human IgG1 (human gamma 1, human kappa)

- Kd (EphA2-Fc [1]): 93 pM
- koff (EphA2-Fc [1]): 5.96e-06 s⁻¹
- kon (EphA2-Fc [1]): 64100 M⁻¹ s⁻¹
B3: 4C10/M, heavy chain modified 4C10 (S60A/A61D, Kabat) (antibody, human IgG1, V domains shown)
VH: B1 VH with N35T, D57A
VL: B1 VL with A91S
notes: The light chain is unaltered; Human IgG1 / kappa; also called 4C10/Mut

Reference: US20060019342A1 (AstraZeneca / MedImmune, published 2006)
